# Experimental data from FireProtDB (doi:10.1002/cbic.201402128).
# “And” between values parts separate entries of the source, which are not always exact repeats. Identical values can stand only once.
# B1: Haloalkane dehalogenase, D4Z2G1 (parent)
# chain: MSLGAKPFGEKKFIEIKGRRMAYIDEGTGDPILFQHGNPTSSYLWRNIMPHCAGLGRLIACDLIGMGDSDKLDPSGPERYAYAEHRDYLDALWEALDLGDRVVLVVHDWGSALGFDWARRHRERVQGIAYMEAIAMPIEWADFPEQDRDLFQAFRSQAGEELVLQDNVFVEQVLPGLILRPLSEAEMAAYREPFLAAGEARRPTLSWPRQIPIAGTPADVVAIARDYAGWLSESPIPKLFINAEPGALTTGRMRDFCRTWPNQTEITVAGAHFIQEDSPDEIGAAIAAFVRRLRPA
# Variants of: B1
# Conditions: Sphingobium indicum (strain DSM 16413 / CCM 7287 / MTCC 6362 / UT26 / NBRC 101211 / UT26S); pH 7.5; Thermal; fluorescence; Na-Hepes 50 mM; reversible: no; structure 1MJ5; whole UniProt chain shown
Variant,Tm,"change of melting temperature, mutant - wild type (higher = more stable)"
A129V,50 °C,-1 °C
Q275P,48 °C,-3 °C
G229A,51.5 °C,0.5 °C
G229D,51.5 °C,0.5 °C
G229E,51.5 °C,0.5 °C
G229S,52 °C,1 °C
G229N,51.5 °C,0.5 °C
G229T,51.5 °C,0.5 °C
G229Q,54 °C,3 °C
G229R,51.5 °C,0.5 °C
A189Y,51.5 °C,0.5 °C
A189F,51.5 °C,0.5 °C
A196C A200C,48.5 °C and 46 °C,-2.5 °C and -3 °C and -0.5 °C
A185P,50.5 °C,-0.5 °C
Q152L,61.5 °C,10.5 °C
S183D,50 °C,-1 °C
E139H,61.5 °C,10.5 °C
E139K,58.5 °C,7.5 °C
E139T,60.5 °C,9.5 °C
E139Q,58.5 °C,7.5 °C
V220M,61 °C,10 °C

Variant,Tm,"change of melting temperature, mutant - wild type (higher = more stable)"
E244V,50.5 °C,-0.5 °C
E244I,50 °C,-1 °C
Q172K,61.5 °C,10.5 °C
A247F,67.5 °C,16.5 °C
E123S,51 °C,0 °C
A133V,51 °C,0 °C
D219Q,50 °C,-1 °C
G176N,51 °C,0 °C
G176A,51.5 °C,0.5 °C
E233T,51.5 °C,0.5 °C
E233Q,51.5 °C,0.5 °C
E233S,51.5 °C,0.5 °C
E233H,51.5 °C,0.5 °C
A271I,60.5 °C,9.5 °C
A271V,62 °C,11 °C
D166K,53.5 °C,2.5 °C
D166N,53 °C,2 °C
T264L,50.5 °C,-0.5 °C
T264Q,50 °C,-1 °C
D100T,51 °C,0 °C
A269P,50 °C,-1 °C

Variant,Tm,"change of melting temperature, mutant - wild type (higher = more stable)"
D226K,50.5 °C,-0.5 °C
D87L,51.5 °C,0.5 °C
D87K,50 °C,-1 °C
A197P,52.5 °C,1.5 °C
C257A,48.5 °C,-2.5 °C
D149K,67.5 °C,16.5 °C
D149Q,62 °C,11 °C
V103I,51 °C,0 °C
D147M,66 °C,15 °C
D147Y,65 °C,14 °C
D147L,65 °C,14 °C
D147H,59.5 °C,8.5 °C
A95H,50.5 °C,-0.5 °C
S183C E186C,47 °C,-4 °C
A218P,51.5 °C,0.5 °C
A218E,51 °C,0 °C
R254L,49.5 °C,-1.5 °C
A296H,50 °C,-1 °C
A296R,50.5 °C,-0.5 °C
A153K,61 °C,10 °C
E192K,54 °C,3 °C

Variant,Tm,"change of melting temperature, mutant - wild type (higher = more stable)"
E192R,53.5 °C,2.5 °C
E192L,51.5 °C,0.5 °C
D97K,50.5 °C,-0.5 °C
D97R,51 °C,0 °C
D97N,50 °C,-1 °C
R225L,51.5 °C,0.5 °C
V268C S278C,48.5 °C and 46 °C,-2.5 °C and -3 °C
D255A,51.5 °C,0.5 °C
D255K,50.5 °C,-0.5 °C
D255Q,50.5 °C,-0.5 °C
V106L,50.5 °C,-0.5 °C
R86L,49 °C,-2 °C
T249L,62.5 °C,11.5 °C
T249V,60 °C,9 °C
T249M,60.5 °C,9.5 °C
V106C G114C,50 °C,1 °C
V105I,50 °C,-1 °C
L248F,61.5 °C,10.5 °C
L248W,62 °C,11 °C
A200P,50.5 °C,-0.5 °C
R101H,51 °C,0 °C
